Measurements: article PMC2659877

Columns and labels:
[1] = target: β-spectrin consisting of residues 1898–2083 (Spβ) (UniProt P11277); test: ITC
[2] = target: β-spectrin (Homo sapiens) (UniProt P11277); test: ITC; conditions: cited from earlier work
[3] = target: β-spectrin (Homo sapiens) (UniProt P11277); test: ITC; conditions: cited from earlier work; remark: listed apart in the source
[4] = target: β-spectrin (Homo sapiens) (UniProt P11277); test: ITC; conditions: cited from earlier work; remark: listed apart in the source
[5] = target: β-spectrin (Homo sapiens) (UniProt P11277); test: ITC; conditions: cited from earlier work; remark: listed apart in the source
[6] = target: spin labeled SpαΔ 49R1 (UniProt P02549); test: spin label EPR titration

Row | Substance | Kd [1] [µM] | other results
1 | spin labeled SpαΔ 46R1 (from UniProt P02549 1-368) (domain or fragment) | 5.9 | 
2 | spin labeled SpαΔ 49R1 (from UniProt P02549 1-368) (domain or fragment) | > 30 | 
3 | spin labeled SpαΔ 53R1 (from UniProt P02549 1-368) (domain or fragment) | 3.3 | 
4 | α-spectrin (from UniProt P02549) |  | Kd [2]: > 200 µM; Kd [3]: 0.5 µM; Kd [4]: 0.4 µM; Kd [5]: 14 µM
5 | β-spectrin consisting of residues 1898–2083 (Spβ) (from UniProt P11277 1898-2083) (domain or fragment) |  | Kd [6]: 98 µM

More lines, in order of falling Kd [1], values ahead:

Row | Kd [1] [µM] | Substance | other results
6 | 3.1 | spin labeled SpαΔ 48R1 (from UniProt P02549 1-368) (domain or fragment) | 
7 | 2.9 | spin labeled SpαΔ 45R1 (from UniProt P02549 1-368) (domain or fragment) | 
8 | 1.5 | spin labeled SpαΔ 20R1 (from UniProt P02549 1-368) (domain or fragment) | 
9 | 0.9 | cysteine-less fragment of the first 368 residues of α-spectrin (from UniProt P02549 1-368) (domain or fragment) | 
